This series deals with the molecule itself. Put plainly: SEC.

B1: His-tagged RsrI N6-adenine DNA methyltransferase (M.RsrI), wild type (enzyme, UniProt P14751 1-319, looked up)
chain: MANRSHHNAGHRAMNALRKSGQKHSSESQLGSSEIGTTRHVYDVCDCLDTLAKLPDDSVQLIICDPPYNIMLADWDDHMDYIGWAKRWLAEAERVLSPTGSIAIFGGLQYQGEAGSGDLISIISHMRQNSKMLLANLIIWNYPNGMSAQRFFANRHEEIAWFAKTKKYFFDLDAVREPYDEETKAAYMKDKRLNPESVEKGRNPTNVWRMSRLNGNSLERVGHPTQKPAAVIERLVRALSHPGSTVLDFFAGSGVTARVAIQEGRNSICTDAAPVFKEYYQKQLTFLQDDGLIDKARSYEIVEGAANFGAALQRGDVAS
B1: the “stoichiometry N” value was found to be 2.

The stoichiometry N is a count of units in the complex or per binding partner.

For the origin of these results see article PMC1361615 (Nucleic Acids Research, 2006).
